The values below come from the RNAGym collection of RNA variant scans (doi:10.1093/molbev/msab373).

Sequences and labels used below:
B1: Azoarcus group I ribozyme (parent)
chain: GUGCCUUGCGCCGGGAAACCACGCAAGGGAUGGUGUCAAAUUCGGCGAAACCUAAGCGCCCGCCCGGGCGUAUGGCAACGCCGAGCCAAGCUUCGGCGCCUGCGCCGAUGAAGGUGUAGAGACUAGACGGCACCCACCUAAGGCAAACGCUAUGGUGAAGGCAUAGUCCAGGGAGUGGCGAAAGUCACACAAACCGG

The variants in this data set derive from B1. Nature of the data set: reverse-splicing fitness (ratio to wild type); higher = more active; in vitro selection; Mg2+ level not given. The method in brief:
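An in vitro group I ribozyme library with randomized positions was T7-transcribed and gel-purified. In triplicate, 10 pmol RNA in EPPS pH 7.5 was reacted with 50 pmoles of a 30-nt RNA substrate for 1 h at 37 °C across several added MgCl2 levels (1–48 mM), then stopped with EDTA. Products were reverse transcribed from a substrate-complementary primer, PCR-amplified and sequenced (HiSeq 4000). Fitness is a variant's read proportion after selection over that before, normalised to wild type.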
Turning to C82G A111G A120G A145U C150G C169U U176C, the reverse-splicing fitness was 0.0149.

For the variant C82G A111U A145U C150A U176A, the reverse-splicing fitness came to 0.0235.

Turning to C82G A111G A120G C150G C169U U176C, the reverse-splicing fitness turned out to be 0.0158.

As for C82U A111U A120U A145C C150U C169G U176A, the reverse-splicing fitness was found to be 0.00283.

Turning to A120G A145C C150G C169U, the reverse-splicing fitness turned out to be 0.0909.

As for C82G A111U A145C U176C, the reverse-splicing fitness turned out to be 0.224.

Consider C82G A111G A145U C150A C169A U176C, for which the reverse-splicing fitness worked out at 0.0131.

Take C82A A111U A145C C150U C169A U176G: the reverse-splicing fitness is 0.00747.

Regarding A111G A120U A145C C150A U176G, the reverse-splicing fitness came out at 0.00839.

For the variant C82U A120C A145G C150A C169G U176A, the reverse-splicing fitness was determined as 0.0157.

With C82A A120C A145G C150A U176A, the reverse-splicing fitness is 0.0137.

Turning to A111U A120G A145C C169G, the reverse-splicing fitness turned out to be 0.193.

As for C82U A145G C150U C169G U176G, the reverse-splicing fitness was 0.00503.

For A111C C150G C169U, the reverse-splicing fitness is 0.0134.

For A111U A120U A145C C150G C169G U176A, the reverse-splicing fitness amounted to 0.00251.

As to A111C A120U C169G U176C, the reverse-splicing fitness stood at 0.00999.

On to C82U A111U A120U A145U C150U C169U U176A, for which the reverse-splicing fitness came to 0.00293.

For C82A A111G A120C C150A C169G U176C, the reverse-splicing fitness amounted to 0.0256.

On to C82A A111U A120U A145C C169A, for which the reverse-splicing fitness was 0.00224.

With A120U A145U C150A C169G U176G, the reverse-splicing fitness amounted to 0.00216.

As to C82U A120G A145G C150A U176G, the reverse-splicing fitness turned out to be 0.00584.

Turning to C82A A111U A120G A145U C150U C169A U176C, the reverse-splicing fitness came out at 0.0139.

C82A A111G A120U C150G C169U U176G: the reverse-splicing fitness stood at 0.00249.

Turning to C82U A120U A145G C169G U176C, the reverse-splicing fitness was 0.00346.

Regarding C82U A111U A120C C150G C169G, the reverse-splicing fitness was found to be 0.00613.

With A145C C150U C169G, the reverse-splicing fitness was found to be 0.0825.

As for C82U A120U A145G C150A C169A U176A, the reverse-splicing fitness turned out to be 0.00482.

Regarding C82U A111U A120C C169U U176G, the reverse-splicing fitness came to 0.00459.

Take C82A A111U A120U A145G C169U U176G: the reverse-splicing fitness is 0.00182.

Turning to C82U A111G A120G A145U C169U U176G, the reverse-splicing fitness amounted to 0.00342.

As for C82A A120C A145C C150A C169A U176G, the reverse-splicing fitness came to 0.00574.

With C82A A111U A120G A145U C150A C169G U176C, the reverse-splicing fitness came out at 0.0161.

As to C82G A111C A120G A145C U176G, the reverse-splicing fitness turned out to be 0.00507.

Regarding C82A A111C A120U A145G C169G, the reverse-splicing fitness was 0.00415.

Take C82G A111U A120C A145U C169A U176A: the reverse-splicing fitness was 0.015.

On to C82G A111U A120U A145U C150G C169A U176G, for which the reverse-splicing fitness came to 0.00233.

Turning to C82U A111C A120G A145C C150A C169G, the reverse-splicing fitness is 0.00682.

On to C82U A120C C169G U176A, for which the reverse-splicing fitness came to 0.0123.

With C82U A111C A120G A145G U176A, the reverse-splicing fitness was determined as 0.0143.

Turning to C82U A111U A145C C169U U176C, the reverse-splicing fitness was 0.0103.

In the case of A111U A120G A145G C169U U176C, the reverse-splicing fitness was 0.0538.

For the variant A111G A120C C150A C169U, the reverse-splicing fitness amounted to 0.0403.

Take C82U A111U A120C A145U C150G C169U: the reverse-splicing fitness came out at 0.00819.

As to C82G A111G A120G A145U C150U C169A, the reverse-splicing fitness stood at 0.0123.

In the case of A111U A120G A145U C150A, the reverse-splicing fitness was found to be 0.0183.

Take C82G A111G A120G C169A: the reverse-splicing fitness was 0.0124.

Turning to C82G A120C A145U C169U U176C, the reverse-splicing fitness turned out to be 0.0154.

With C82A A111C A145G C150A C169G U176A, the reverse-splicing fitness was 0.0152.

C82A A111U A145C C169U: the reverse-splicing fitness amounted to 0.0123.

As for C82A A111G A120C C150U U176C, the reverse-splicing fitness came to 0.0238.

Turning to C82U A111C A145U C169A U176A, the reverse-splicing fitness amounted to 0.0129.

For C82A A111U A120U A145U U176G, the reverse-splicing fitness was determined as 0.00335.

As for C82U A111U A145G U176A, the reverse-splicing fitness amounted to 0.107.

As to C82U A111U A120U A145G C169G U176A, the reverse-splicing fitness was determined as 0.00271.

As for C82U A120C U176A, the reverse-splicing fitness came out at 0.048.

With C82U A111G A120C A145C, the reverse-splicing fitness turned out to be 0.0519.

On to C82A A120C A145U C169U U176C, for which the reverse-splicing fitness was determined as 0.0114.

As for C82A A111G A120C A145U C150G C169G U176A, the reverse-splicing fitness came out at 0.00801.

For C82G A111U A120U C150A U176A, the reverse-splicing fitness was determined as 0.00758.

As to C82U A111C A120U A145U C150A U176A, the reverse-splicing fitness came to 0.00357.

Consider C82U A111C A120U C169A, for which the reverse-splicing fitness came out at 0.00322.

Turning to C82G A120U A145G C150U C169G U176G, the reverse-splicing fitness stood at 0.00186.

As for C82G A111G C169G U176A, the reverse-splicing fitness was determined as 0.0197.

In the case of C82G A111G C169G U176G, the reverse-splicing fitness came to 0.0047.

As to A111U A120U A145U C169A U176C, the reverse-splicing fitness worked out at 0.00283.

In the case of C82A A111U A120G C150U, the reverse-splicing fitness is 0.0133.

Take C82G C150A C169A U176A: the reverse-splicing fitness came to 0.0213.

On to C82G A111U A120U A145G C150G U176A, for which the reverse-splicing fitness is 0.00648.

Take C82A A111U A120U A145U C150G C169A U176C: the reverse-splicing fitness was 0.00325.

As for C82U A111C A145U U176G, the reverse-splicing fitness was found to be 0.0238.

On to C82A A111C C150U C169U U176A, for which the reverse-splicing fitness was 0.0165.

With C82G A111G A145C C150G C169G, the reverse-splicing fitness came to 0.00758.

C82U A111C A120U A145U C150U U176G: the reverse-splicing fitness turned out to be 0.0027.

With C82U A111U A120G A145U C150A C169U U176G, the reverse-splicing fitness came out at 0.00425.

As to C82G A111C C150A U176C, the reverse-splicing fitness was found to be 0.0293.

As for A111U A120G C169U, the reverse-splicing fitness stood at 0.155.

For the variant C82U A111G A120C C150U U176A, the reverse-splicing fitness was 0.0148.

For C82U A111C A145U C169G U176A, the reverse-splicing fitness is 0.0145.

Consider C82U A111C A120G C150A U176A, for which the reverse-splicing fitness is 0.0152.

Turning to A111C A145C C150U C169G U176C, the reverse-splicing fitness came out at 0.0197.

C82A A111G A145C C150G C169A U176C: the reverse-splicing fitness worked out at 0.00805.

On to C82U A120U A145U C150A U176A, for which the reverse-splicing fitness was determined as 0.00666.

Turning to C82G A120C C150G C169A U176C, the reverse-splicing fitness came to 0.0106.
